Assay results reported in PMC2916881.

What was measured:
human fibrinogen (human) = human fibrinogen (human) (UniProt P02671); experiment: SPR; BIAcore 3000, CM5 chip; human prothrombin and human fibrinogen amine-linked, Coa or vWbp injected in HBS-P (20 mM HEPES pH 7.4, 150 mM NaCl, 0.005% P20), flow 2 uL/min; 1:1 binding model with drifting baseline and local Rmax (the legend of Figure S5 tells the opposite orientation)
[1] = biological target: human prothrombin (human); experiment: as above

UniProt P02671, sequence (P02671 36-866, chain 1 of 3): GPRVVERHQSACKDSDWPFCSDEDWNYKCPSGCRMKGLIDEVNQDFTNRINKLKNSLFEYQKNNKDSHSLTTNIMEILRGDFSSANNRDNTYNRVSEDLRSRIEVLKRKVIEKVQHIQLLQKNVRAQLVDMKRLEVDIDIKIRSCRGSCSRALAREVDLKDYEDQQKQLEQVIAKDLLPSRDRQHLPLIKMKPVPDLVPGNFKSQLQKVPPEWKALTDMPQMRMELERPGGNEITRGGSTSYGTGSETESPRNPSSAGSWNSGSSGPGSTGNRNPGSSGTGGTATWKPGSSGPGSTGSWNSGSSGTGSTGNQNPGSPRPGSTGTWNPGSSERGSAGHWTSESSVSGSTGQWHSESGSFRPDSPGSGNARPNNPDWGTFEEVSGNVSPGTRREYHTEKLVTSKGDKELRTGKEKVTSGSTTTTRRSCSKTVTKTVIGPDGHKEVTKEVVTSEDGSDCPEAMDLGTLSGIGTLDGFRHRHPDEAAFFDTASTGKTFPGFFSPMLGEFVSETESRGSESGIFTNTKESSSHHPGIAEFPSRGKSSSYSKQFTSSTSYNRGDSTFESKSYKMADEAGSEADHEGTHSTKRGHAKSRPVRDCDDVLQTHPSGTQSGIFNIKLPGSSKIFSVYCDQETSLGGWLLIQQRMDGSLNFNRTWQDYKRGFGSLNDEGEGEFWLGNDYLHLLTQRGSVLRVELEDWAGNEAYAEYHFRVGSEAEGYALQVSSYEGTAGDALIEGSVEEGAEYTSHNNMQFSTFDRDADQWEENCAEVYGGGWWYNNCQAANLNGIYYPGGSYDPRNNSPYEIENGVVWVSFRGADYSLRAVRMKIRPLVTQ
UniProt P02671, sequence (P02675 45-491, chain 2 of 3, further chain): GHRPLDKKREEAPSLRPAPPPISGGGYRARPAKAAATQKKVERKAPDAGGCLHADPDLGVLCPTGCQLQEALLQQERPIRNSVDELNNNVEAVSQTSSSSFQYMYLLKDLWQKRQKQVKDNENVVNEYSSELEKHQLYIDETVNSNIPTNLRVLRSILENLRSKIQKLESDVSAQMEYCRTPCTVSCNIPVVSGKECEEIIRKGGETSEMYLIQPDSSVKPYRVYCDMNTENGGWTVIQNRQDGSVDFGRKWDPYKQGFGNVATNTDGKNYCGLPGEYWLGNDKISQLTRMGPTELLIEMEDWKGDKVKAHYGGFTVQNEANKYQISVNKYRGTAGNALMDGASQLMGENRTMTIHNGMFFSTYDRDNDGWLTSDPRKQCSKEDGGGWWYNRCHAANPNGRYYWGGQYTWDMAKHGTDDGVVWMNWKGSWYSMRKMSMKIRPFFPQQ
UniProt P02671, sequence (P02679 27-453, chain 3 of 3, further chain): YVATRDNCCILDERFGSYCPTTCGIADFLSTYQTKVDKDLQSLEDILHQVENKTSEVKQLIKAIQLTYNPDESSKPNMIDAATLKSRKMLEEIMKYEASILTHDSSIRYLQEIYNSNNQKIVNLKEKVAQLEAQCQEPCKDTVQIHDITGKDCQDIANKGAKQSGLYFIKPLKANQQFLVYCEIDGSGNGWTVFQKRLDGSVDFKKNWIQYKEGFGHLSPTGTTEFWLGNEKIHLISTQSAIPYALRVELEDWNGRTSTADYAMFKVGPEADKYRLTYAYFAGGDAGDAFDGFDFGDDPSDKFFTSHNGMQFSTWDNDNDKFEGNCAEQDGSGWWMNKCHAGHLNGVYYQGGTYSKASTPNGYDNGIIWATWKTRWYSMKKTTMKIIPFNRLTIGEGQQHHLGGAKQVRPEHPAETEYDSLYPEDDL

## S. aureus Newman von Willebrand factor binding protein (natural protein)
Human fibrinogen (human)
  Kd: 271 nM
[1]
  Kd: 98 nM

## S. aureus Newman Coagulase (natural protein)
Human fibrinogen (human)
  Kd: 33 nM
[1]
  Kd: 5 nM
